Experimental findings from patent publication US5919694A, “Mutant phosphoenolpyruvate carboxylase, its gene, and production method of amino acid” (Ajinomoto Co., Inc., priority 1993, dated 1999) are described below.

One data set has as its system Escherichia coli HB101. The data set can be described thus: Growth inhibition of Escherichia coli HB101 by aspartic acid analog compounds and recovery by additives. The following applies: E. coli HB101 in M9 medium, absorbance at 660 nm; FIGS. 1-3. The data set is classed as cell-based. Here is the method:
It is proposed, as a general structure of an inhibitor of phosphoenolpyruvate carboxylase, that a C4 dicarboxylic acid structure is essentially provided. From such a viewpoint, various compounds were subjected to screening by the present inventors. Escherichia coli HB101 was cultivated in an LB medium, and transferred to M9 media (containing 20 μg/ml of thiamine and 3 μg/ml of each of Leu and Pro) containing any one of DL-2-amino-4-phosphonobutyric acid, bromosuccinic acid, meso-2,3-dibromosuccinic acid, 2,2-difluorosuccinic acid, 3-bromopyruvic acid, α-ketobutyric acid, α-ketoadipinic acid DL-threo-β-hydroxyaspartic acids L-aspartic acid β-metyl ester α-metyl-DL-aspartic acid, 2,3-diaminosuccinic acid or aspartic acid-β-hydrazide, and absorbance of the medium was measured at 660 nm with the passage of time, thereby growth was monitored.
Further, when these compounds were present at their growth inhibitory concentrations, it was investigated whether or not the inhibition was recovered by addition of nucleic acids (each of uridine, adenosine: 10 mg/dl), glutamic acid or amino acids of the aspartic acid family (Asp: 0.025%, each of Met, Thr, Lys: 0.1%).
Further, growth recovery of Escherichia coli, in the case of addition of the aforementioned inhibition recovering substances alone or as a mixture of 2 species or 3 species, is shown in FIGS. 4-6. […]

The subject of data set [1] is phosphoenolpyruvate carboxylase. The data set can be described thus: Sensitivity of phosphoenolpyruvate carboxylase activity to aspartic acid. The data set is classed as biochemical, Escherichia coli. An excerpt:
When the microorganism transformed with the DNA sequence of the present invention as described above is cultivated, and this DNA sequence is expressed, then a mutant enzyme is obtained. It becomes apparent, by measuring the activity by adding aspartic acid to an enzyme reaction system, whether or not the mutant enzyme thus obtained has desensitized feedback inhibition by aspartic acid. It is possible for the measurement of the enzyme activity to use a spectrometric method (Yoshinage, T., Izui, K. and Katsuki, H., J. Biochem., 68, 747-750 (1970)) and the like.
Sensitivity to aspartic acid was investigated in accordance with a known method (Yoshinaga, T., Izui, K. and Katsuki, H., J. Biochem., 68, 747-750 (1970)). Namely, as a result of measurement of the enzyme activity produced by each of the transformants or Escherichia coli harboring pS2 in the presence of acetyl-coenzyme A known to affect the activity in an activity measurement system at a concentration of 0.1 mM or 1 mM, sensitivity to aspartic acid was measured as shown in FIGS. 9 and 10.
Sensitivity to aspartic acid was investigated in accordance with a known method (Yoshinaga, T., Izui, K. and Katsuki, H., J. Biochem., 68, 747-750 (1970)). Namely, as a result of measurement of the enzyme activity in the presence of acetyl-coenzyme A known to affect the activity in an activity measurement system at a concentration of 1 mM or 2 mM, sensitivity to aspartic acid was measured as shown in FIG. 12.
Sensitivity to aspartic acid was investigated in accordance with a known method (Yoshinaga, T., Izui, K. and Katsuki, H., J. Biochem., 68, 747-750 (1970)). Namely, as a result of measurement of the enzyme activity in the presence of acetyl-coenzyme A known to affect the activity in an activity measurement system at a concentration of 1 mM or 2 mM, sensitivity to aspartic acid was measured as shown in FIG. 13.

For `NNC(=O)CC(N)C(=O)O` (stereo not drawn) [aspartate-β-hydrazide], in the data set on Escherichia coli HB101, the “growth inhibition of Escherichia coli” value is recorded as “growth inhibition”.

With `N[C@H](C(=O)O)[C@H](O)C(=O)O` (relative stereo) [DL-threo-β-hydroxyaspartate], the “growth inhibition of Escherichia coli” value in the data set on Escherichia coli HB101 is reported as “growth inhibition”.

B1: wild type enzyme: wild type phosphoenolpyruvate carboxylase of Escherichia coli, expressed from pS2 or pT2 (protein, UniProt P00864 1-883, looked up)
Phosphoenolpyruvate …: MNEQYSALRSNVSMLGKVLGETIKDALGEHILERVETIRKLSKSSRAGNDANRQELLTTLQNLSNDELLPVARAFSQFLNLANTAEQYHSISPKGEAASNPEVIARTLRKLKNQPELSEDTIKKAVESLSLELVLTAHPTEITRRTLIHKMVEVNACLKQLDNKDIADYEHNQLMRRLRQLIAQSWHTDEIRKLRPSPVDEAKWGFAVVENSLWQGVPNYLRELNEQLEENLGYKLPVEFVPVRFTSWMGGDRDGNPNVTADITRHVLLLSRWKATDLFLKDIQVLVSELSMVEATPELLALVGEEGAAEPYRYLMKNLRSRLMATQAWLEARLKGEELPKPEGLLTQNEELWEPLYACYQSLQACGMGIIANGDLLDTLRRVKCFGVPLVRIDIRQESTRHTEALGELTRYLGIGDYESWSEADKQAFLIRELNSKRPLLPRNWQPSAETREVLDTCQVIAEAPQGSIAAYVISMAKTPSDVLAVHLLLKEAGIGFAMPVAPLFETLDDLNNANDVMTQLLNIDWYRGLIQGKQMVMIGYSDSAKDAGVMAASWAQYQAQDALIKTCEKAGIELTLFHGRGGSIGRGGAPAHAALLSQPPGSLKGGLRVTEQGEMIRFKYGLPEITVSSLSLYTGAILEANLLPPPEPKESWRRIMDELSVISCDVYRGYVRENKDFVPYFRSATPEQELGKLPLGSRPAKRRPTGGVESLRAIPWIFAWTQNRLMLPAWLGAGTALQKVVEDGKQSELEAMCRDWPFFSTRLGMLEMVFAKADLWLAEYYDQRLVDKALWPLGKELRNLQEEDIKVVLAIANDSHLMADLPWIAESIQLRNIYTDPLNVLQAELLHRSRQAEKEGQEPDPRVEQALMVTIAGIAAGMRNTG
Consider B1, for which the “enzyme activity at high aspartic acid concentration (sensitivity to aspartic acid)” value in data set [1] (Example 2, acetyl-coenzyme A 0.1 mM or 1 mM, FIGS. 9 and 10) is listed as “loses its activity”; in data set [1] (Example 6 <3>, pT2R438C (438th Arg to Cys), acetyl-coenzyme A 1 mM or 2 mM, FIG. 12), “substantially loses its activity”; in data set [1] (Example 6 <5>, pT2K620S, acetyl-coenzyme A 1 mM or 2 mM, FIG. 13), “substantially loses its activity”.
